In assay [1] the target is T1, Recombinant human CD39-L4 (NTPDase5, ENTPD5) (human, UniProt O75356 25-428).
T1 construct: Coated in ELISA
T1 sequence: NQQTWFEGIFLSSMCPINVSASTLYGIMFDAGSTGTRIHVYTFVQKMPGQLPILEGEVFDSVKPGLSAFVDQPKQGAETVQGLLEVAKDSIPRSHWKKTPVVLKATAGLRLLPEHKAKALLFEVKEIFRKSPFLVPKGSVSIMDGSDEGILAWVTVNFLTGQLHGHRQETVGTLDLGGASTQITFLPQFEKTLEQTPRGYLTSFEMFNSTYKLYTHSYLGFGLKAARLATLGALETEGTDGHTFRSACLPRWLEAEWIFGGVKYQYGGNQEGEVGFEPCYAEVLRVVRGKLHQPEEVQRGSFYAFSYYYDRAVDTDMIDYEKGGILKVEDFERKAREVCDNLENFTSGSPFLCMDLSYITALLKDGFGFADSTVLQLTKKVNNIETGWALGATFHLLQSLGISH
The assay is described as follows: ELISA on coated RechuCD39-L4, OD 450 nm [top panel CHS2-I-391]. Here is the method: (§1) Wells were washed in TBS Tween 20, and further saturated 2H at RT in TBS Blocking buffer. Dose range concentration of primary antibody was incubated in TBS blocking buffer for 2h at RT. Wells were washed in TBS Tween 20. […] Optical density was measured on Enspire at OD=450.

Assay [2] has as its target T2, CD39 mutant 2A (V81S, E82A, R111A, V115A) (human, UniProt P49961 1-510).
T2 construct: Transfected in HEK293T cells
T2 chain: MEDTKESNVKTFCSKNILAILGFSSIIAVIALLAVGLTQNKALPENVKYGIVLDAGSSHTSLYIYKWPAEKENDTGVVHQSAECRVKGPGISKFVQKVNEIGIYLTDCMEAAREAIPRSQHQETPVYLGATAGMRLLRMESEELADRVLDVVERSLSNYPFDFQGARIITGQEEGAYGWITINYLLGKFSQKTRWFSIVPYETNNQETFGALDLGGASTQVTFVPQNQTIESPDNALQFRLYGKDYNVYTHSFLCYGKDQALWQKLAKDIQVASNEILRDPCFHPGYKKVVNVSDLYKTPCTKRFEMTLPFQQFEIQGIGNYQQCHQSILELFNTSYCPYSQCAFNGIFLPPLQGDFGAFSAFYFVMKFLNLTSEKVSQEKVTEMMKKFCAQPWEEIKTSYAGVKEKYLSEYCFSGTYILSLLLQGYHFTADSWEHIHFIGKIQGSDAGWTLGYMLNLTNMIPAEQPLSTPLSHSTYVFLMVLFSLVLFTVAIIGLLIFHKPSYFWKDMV
The assay is described as follows: flow cytometry, HEK293T cells transfected with mutant 2A.

Assay [3] addresses T3, Recombinant human CD39-L2 (NTPDase6, ENTPD6) (human, UniProt O75354 61-484, limits assumed).
T3 construct: Coated in ELISA
T3 sequence: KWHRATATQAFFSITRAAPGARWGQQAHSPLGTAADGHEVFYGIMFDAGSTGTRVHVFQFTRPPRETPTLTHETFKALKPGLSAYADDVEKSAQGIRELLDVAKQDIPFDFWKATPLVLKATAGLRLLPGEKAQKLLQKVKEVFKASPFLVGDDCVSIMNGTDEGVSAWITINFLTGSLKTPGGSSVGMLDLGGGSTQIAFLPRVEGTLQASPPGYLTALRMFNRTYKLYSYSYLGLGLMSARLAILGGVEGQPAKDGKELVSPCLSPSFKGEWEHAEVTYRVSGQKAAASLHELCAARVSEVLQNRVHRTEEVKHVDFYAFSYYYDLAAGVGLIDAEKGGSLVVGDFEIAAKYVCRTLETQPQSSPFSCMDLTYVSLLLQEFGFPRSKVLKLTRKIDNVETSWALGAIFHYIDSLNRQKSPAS
The assay is described as follows: ELISA on coated RechuCD39-L2, OD 450 nm [top panel CHS2-I-391]. As to the method:
as §1
(An ELISA detects its analyte on a solid surface through an enzyme-linked reagent.)

For assay [4], the target named is T4, CD39 mutant 4 (D150A, E153S, R154A, S157K, N158A, L278F) (human, UniProt P49961 1-510).
T4 construct: Transfected in HEK293T cells
T4 chain: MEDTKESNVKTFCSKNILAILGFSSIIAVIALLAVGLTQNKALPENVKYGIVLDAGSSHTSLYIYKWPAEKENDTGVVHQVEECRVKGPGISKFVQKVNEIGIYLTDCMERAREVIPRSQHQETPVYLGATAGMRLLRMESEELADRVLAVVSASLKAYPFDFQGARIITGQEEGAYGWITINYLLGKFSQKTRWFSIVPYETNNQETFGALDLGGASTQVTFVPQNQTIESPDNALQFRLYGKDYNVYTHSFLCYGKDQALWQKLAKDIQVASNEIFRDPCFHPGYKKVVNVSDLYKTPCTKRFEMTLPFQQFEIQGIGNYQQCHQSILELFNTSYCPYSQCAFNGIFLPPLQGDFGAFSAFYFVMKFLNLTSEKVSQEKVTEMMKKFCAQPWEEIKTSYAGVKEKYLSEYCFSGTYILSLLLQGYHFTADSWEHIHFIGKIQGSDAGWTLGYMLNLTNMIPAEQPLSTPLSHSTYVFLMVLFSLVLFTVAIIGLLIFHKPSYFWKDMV
The assay is described as follows: flow cytometry, HEK293T cells transfected with mutant 4.

The target in assay [5] is T5, CD39 mutant 3 (R118A, S119A, Q120K, Q122H, E123A) (human, UniProt P49961 1-510).
T5 construct: Transfected in HEK293T cells
T5 chain: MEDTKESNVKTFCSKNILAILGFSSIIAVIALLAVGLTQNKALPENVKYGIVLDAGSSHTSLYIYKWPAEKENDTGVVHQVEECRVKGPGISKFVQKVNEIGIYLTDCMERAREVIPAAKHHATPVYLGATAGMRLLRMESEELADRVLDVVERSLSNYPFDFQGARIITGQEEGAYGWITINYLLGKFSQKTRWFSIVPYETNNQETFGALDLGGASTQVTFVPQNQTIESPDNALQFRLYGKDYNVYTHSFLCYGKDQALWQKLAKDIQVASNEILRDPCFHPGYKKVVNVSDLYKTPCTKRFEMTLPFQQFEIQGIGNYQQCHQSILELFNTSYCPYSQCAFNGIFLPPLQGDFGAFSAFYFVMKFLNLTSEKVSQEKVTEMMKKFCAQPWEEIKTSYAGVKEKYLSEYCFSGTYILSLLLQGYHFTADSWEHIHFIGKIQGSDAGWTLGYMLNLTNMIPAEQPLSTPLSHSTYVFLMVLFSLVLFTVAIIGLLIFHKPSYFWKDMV
The assay is described as follows: flow cytometry, HEK293T cells transfected with mutant 3. (Flow cytometry measures light scatter and fluorescence of single cells or particles in a stream.)

We go through one molecule from patent publication US20190153113A1, “CD39 VASCULAR ISOFORM TARGETING AGENTS” (INNATE PHARMA, priority 2015, published 2019).

B1: Antibody I-391, Fc silent recombinant chimeric human IgG1 with heavy chain N297Q mutation (antibody, V domains shown)
VH: QIQLVQSGPELKKPGETVKISCKASGYTFRNYGMNWVKQAPGKGLKWMGWINTYTGEPTYADDFKGRFAFSLATSASTAYLQISNLKNEDTATYFCARKAYYGSNYYFDYWGQGTTLTVSS
VL: DIVMTQSHKFMSTSVGDRVSITCKASQDVSTAVAWYQQKPGQSPKLLIYSASYRYTGVPDRFTGSGSGTDFTFTISTVQAEDLAVYYCQQHYTTPPYTFGGGTKLEIKR
With B1, the binding result is “no binding (tested: 50 ug/ml)” in assay [1]; “binds” in assay [2]; “no binding (tested: 50 ug/ml)” in assay [3]; “binds” in assay [4]; “binds” in assay [5].
